Measured values from patent US20230392126A1, “TISSUE ORGANOIDS” (priority 2016, published 2023).

Columns and labels:
[1] = Stability and tolerance of transplanted skin organoids in immunocompetent hosts; assay type: in vivo, mouse; settings: isogenic hosts CD1 and C57BL/6
Description: For grafting with skin organoids, CD1 (isogenic mouse keratinocyte transplantation) males or Nude (human keratinocyte transplantation) females with the ages of 6-8 weeks were anesthetized. A silicone chamber bottom with the interior diameter of 0.8 cm and the exterior diameter of 1.5 cm was implanted on its shaved dorsal mid-line skin, which was used to hold the skin graft. A chamber cap was installed to seal the chamber right after a piece of graft was implanted. About one week later, the chamber cap was removed to expose the graft to air. A single dose of 0.2 mg α-CD4 (GK1.5) and 0.2 mg α-CD8 (2.43.1) antibodies was administered intraperitoneally for skin grafting.
Optical imaging was performed in the integrated small animal imaging research resource (iSAIRR) at the University of Chicago. Bioluminescence images were acquired on an IVIS Spectrum (Caliper Life Sciences®, Alameda, CA) after animal was injected with luciferin (100 mg/kg). […]
Grafted cells in immunocompetent hosts readily expressed exogenous genes, such as Luciferase and Histone H2B-RFP (FIG. 1B-D), which were transduced to the cells with lentivirus. […] Importantly, the tissue organoid with expression of exogenous gene, such as Luciferase and H2B-RFP, was stable in vivo for more than 5 months in immunocompetent hosts, as determined by intravital bioluminescence imaging and tissue histology. […]

[2] = Cocaine hydrolysis activity in vitro (clearance assay with conditioned medium)
[3] = after i.v. injection; cited from earlier work
mouse epidermal cells = assay: Expression and secretion of hBChE by immunoblots and ELISA (mouse epidermal cells); settings: engineered mouse epidermal cells
[4] = hBChE in blood by ELISA, mice grafted with mouse skin organoids; assay type: in vivo
Description: To efficiently transplant mouse epidermal progenitor cells, a new organotypic culture model with mouse epidermal progenitor cells was developed in vitro by culturing the cells on top of acellularized mouse dermis. Exposure to the air/liquid interface can induce stratification of cultured cells to generate a skin-like organoid in vitro. […] To investigate the potential therapeutic effect of hBChE expression in vivo, we transplanted the organoids to isogenic host animals (CD1 and C57BL/6) (FIGS. 22A and 22B-C). […] Expression of hBChE in grafted animals was stable for more than 10 weeks (FIG. 22H).

[5] = Acute drug overdose test: cocaine-induced lethality; assay type: in vivo, mouse; settings: 40, 80, 120, 160 mg/kg cocaine i.p.
Description: For all behavioral experiments except where noted, C57BL/6J mice were used. Roughly equal numbers of adult male and female mice were group-housed until surgery. Mice were maintained under controlled temperature and humidity conditions on a 12 h:12 h light:dark cycle (lights on at 7:00). Water and food were available ad libitum. Mice weighed around 25-30 g at the beginning of the experiments. All procedures followed National Institutes of Health Guide for the Care and Use of Laboratory Animal and were approved by the University of Chicago Institutional Animal Care and Use Committee.
Drug: Cocaine HCl and methamphetamine HCl (Sigma-Aldrich, Saint Louis, MO) were dissolved in sterile saline and delivered intraperitoneally at appropriates doses in a volume of 10 mL/kg. […]
Acute drug overdose test: Two weeks after grafting surgery, 4 groups of GhBChE and 4 groups of GWT mice (n=8 each in each group) received i.p. injections of cocaine at 40, 120, and 160 mg/kg. […] Mice were monitored for 2 h following injection and percent of cocaine- and METH-induced lethality was calculated.
To first determine whether engrafting hBChE-expressing cells protects mice from acute systemic toxicity of cocaine, we delivered different doses of cocaine to grafted mice and calculated the lethality rates of cocaine. […]

B1: hBChE: modified human butyrylcholinesterase (E30-6, SEQ ID NO: 41), cocaine hydrolase, expressed from engineered epidermal cells / skin grafts (protein)
chain: MHSKVTIICIRFLFWFLLLCMLIGKSHTEDDIIIATKNGKVRGMNLTVFGGTVTAFLGIPYAQPPLGRLRFKKPQSLTKWSDIWNATKYANSCCQNIDQSFPGFHGSEMWNPNTDLSEDCLYLNVWIPAPKPKNATVLIWIYGGGFQTGTSSLHVYDGKFLARVERVIVVSMNYRVGALGFLALPGNPEAPGNMGLFDQQLALQWVQKNIAAFGGNPKSVTLFGESSGAASVSLHLLSPGSHSLFTRAILQSGSANAPWAVTSLYEARNRTLNLAKLTGCSRENETEIIKCLRNKDPQEILLNEAFVVPYGTALGVNFGPTVDGDFLTDMPDILLELGQFKKTQILVGVNKDEGTWFLVGGAPGFSKDNNSIITRKEFQEGLKIFFPGVSEFGKESILFHYTDWVDDQRPENYREALGDVVGDYNFICPALEFTKKFSEWGNNAFFYYFEHRSSKLPWPEWMGVMHGYEIEFVFGLPLERRDNYTKAEEILSRSIVKRWANFAKYGNPNETQNNSTSWPVFKSTEQKYLTLNTESTRIMTKLRAQQCRFWTSFFPKVLEMTGNIDEAEWEWKAGFHRWNNYMMDWKNQFNDYTSKKESCVGL
modifications: Human mutant BChE
- time without significant rejection of skin grafts [1]: at least 5 months
- cocaine hydrolysis activity of conditioned medium [2]: significantly induced degradation of cocaine in vitro
- half-life in vivo [3]: short half-life in vivo
- expression and secretion of hBChE (mouse epidermal cells): robust expression and secretion of hBChE
- duration of stable hBChE expression in grafted animals ([4]; hosts with intact immune systems): more than 10 weeks
- level of human BChE in the blood ([4]; mice grafted with hBChE-expressing mouse cells): significantly elevated levels of human BChE in the blood
- cocaine-induced lethality in GhBChE mice [5]: nearly lethality
